# Results: the nanobody polyreactivity screen of Harvey et al. (2022)
# Assay: yeast display, Sf9 membrane polyspecificity reagent, FACS + sequencing; frameworks hold sequencing errors
# In short: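 Sorting gates, low and high (top ~1%), were placed on anti-HA fluorescence to track expression and on streptavidin fluorescence to track reagent binding. A clone's polyreactivity label is taken from the gate it came out of. The reagent was 10% biotinylated, detergent-solubilized Sf9 membrane, applied for 1 hour at 4 °C to galactose-induced yeast display cells.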
row,Sequence,polyreactivity (PSR sort gate)
1,QVQLVESGGGLVQAGGSLRLSCAASGGTFYEYVMGWDRQAPGKERELVAAISWGDGSTYYADSVKGRFTISRDNAKNTVYLQMNSLKPEDTAVYYCAADHTVFTYEYWGQGTQVTVSS,high polyreactivity
2,QVQLVESGGGLVQAGGSLRLSCAASGRIFGLYAMGWYRQAPGKEREFVAAINWDGGSTFYADSVKGRFTISRDNAKNTVYLQMNSLKPEDTAVYYCAADVYSYVSYSTYVSVFTYDYWGQGTQVTVSS,low polyreactivity
3,QVQLVESGGGLVQAGGSLRLSCAASGRILSTYARGWYRQAPGKETELVAAITRTSGSTYYADSVKGRFTISRDNAKNTVYLQMNSLKPEDTAVDYCAADTWLITWSGQYNSWGQGTQVTVSS,low polyreactivity
4,QVQLGESGGGLVQAGGSLRLSCAASGITFGRKTMGWYRQAPGKERELVAAIDSGGNTYADSVKGRFTISRDNAKNTVYLQMNSLKPEDTAVYYCAVDGGEFSSYGYWGQGTQVTVSS,low polyreactivity
5,PVQLVESGGGLVQAGGSLRLSCAASGRIFVYNVMGWSRQATGKERELVAASRWSGGSTYADSVNGRYTISRDQAKNPVYLQIHSLKPEDTADYYCAARHYRRGDSWAQGTQVTVSS,high polyreactivity
6,QVQLVESGGGLVQAGGSLRLSCAASGLIFLSYGMGWYRQAPGKERELVAAISSGGSTYYADSVKGRFTISRDNAKNTVYLQMNSLKPEDTAVYYCAAEQPIEFDHWGQGTQVTVSS,low polyreactivity
7,QVQLVESGGGLVQAGGSLRLSCAASGRIFFLNTMGWYRQAPGKERELVAAITRGGSTYYADSVKGRFTISRDNAKNTVYLQMNSLKPEDTAVYYCAADVYGGIGYDYWGQGTQVTVSS,low polyreactivity
8,QVQLVESGGGLVQAGGSLRLSCAASGNTFTTYAMGWYRQAPGKERELVAAISRRGGSTYYADSVKGRFTISRDNAKNTVYLQMNSLKPDDTAVYYCARRYFYTYGYWGQGTQVTVSS,high polyreactivity
9,QVQLVESGGGLVQAGGSLRLSCAASGRTFQDNAMGWSRQEPGKERELVAAISWRGGSTNYADSVKGRFTISRDNAKNTVFLQLNSLKPEDTAVYYCNRDPRKYGKLDYWGQGTQVTVSS,low polyreactivity
10,QVQLVESGGGLVQAGGSLRLSCAASGSTLGSNTMGWYRQAPGKERELVATISRRGGSTYYADSVKGRFTISRDNAKNTVYLQMNSLKPEDTAVYYCAAPPVYKFTNGDYRSTFFHWGQGTQVTVSS,high polyreactivity
11,QVQLVESGGGLVQAGGSLRLSCAASGRTFRHNDMGWYRQAPGKERELVAAISYSGGSTHYADSVKGRFTISRDNAKNTVYLQMNSLKPEDTAVYYCNRYSYDSHFLYPFRGHDYWGQGTQVTVSS,low polyreactivity
12,QVQLVESGGGLVQAGGSLRLSCAASGLTFGGYVMGWYRPAPGKERELVAAISWSGTRTYYADSVKGRFTISRDNAKNTVYLQMNSLKPEDTAVYYCAARVKSYNRGYYWGQGTQVTVSS,high polyreactivity
13,QVQLVESGGGLVQAGGSLRLSCAASGIIFYRYAMGWYRQAPGKESELVAAITWSGVSTSYADSVKGRFTISRDNAKNTVYLQMNSLKPEDTAVYYCNKDPGTLYGDMDSWGQGTQVTVSS,low polyreactivity
14,QVQLVESGGGLVQAGGSLRLSCAASGSIFSSYAKGWYLQAPGKERELVAAISQSGGDTYYADSVKGRFTISRDNAKNTVYLEMNSLKPEDSAVYYCAASVWYYPMDYWGQGSQVTVSS,low polyreactivity
15,QVQLVESGGGLVQAGGSLRLSCAASGFIFGGYAMGWYRQAPGKERELVADISSGDSTKYADSVKGRFTISRDNAKNTVYLQMNSLKPEDTAVYYCAADAVVSTWTQFEYDYWGQGTQVTVSS,low polyreactivity
16,QVQLVESGGGLVQAGGSLRLSCAASGGIFWYYAMGWYRQAPGNERELVATISTGGSTKYADSVKGRFTISRDNAKNTVYLQMNSLNPDDTAVYYCNKVFPNLYIYVVRGLIEMDYWGQGTQVTVSS,low polyreactivity
17,QVQLVESGGGLVQAGGSLRLSCAASGRTFYPYVMGWYRQAPGKEREFVAAISGTGGTTYYADSVKGRFTISRDNAKTTVYLQMNSLKPEDTAVYYCNRRIPYTSYSYGYWGQGTQVTVSS,high polyreactivity
18,QVQLVESGGGLVQAGGSLRLSCAASGRIIGYYAMGWYRQAPGKERELVAAITSGGRTNYADSVKGRFTISRDNAKNTVYLQMNSLKPEDTAVYYCAKEYPRYSSPYDYWGQGTQVTVSS,low polyreactivity
19,QVQLVESGGGLVQAGGSLRLSCAASGYIFPKNAMGGYRQAPGKERELVAAITGSGGSTYYADSVKGRFTISRDNAKNTVYLQMISLKPEDTAVYYCAKRSWFEYDYWGQGTQVTVSS,low polyreactivity
20,QVQLVESGGGLVQAGGSLRLSCAASGITFRYYTMGWYRQAPGKERELVAAITTGGSTNYADSVKGRFTISRDNAKNTVYLQMNSLKPEDTAVYYCAATYKYITRGYLYDYWGQGTQVTVSS,high polyreactivity
21,QVQLVESGGGLVQAGGSLRLSCAASGFIFRYNAMGWYRQAPGKERELVARISSGGSTNYADSVKGRFTISRDNAKNTVYLQMNSLIPEDTAVYYCAVKQYWYIWSGYGYDYWGQGTQVTVSS,high polyreactivity
22,QVQLVESGGGLVQAGGSLRLSCAASGSIFWPNTMGWYRQAPGKERELVAGISFGGGSTYYADSVKGRFTISRDNAKNTVYLQMNSLKPEDTEVYYCNAPGPVISRRTDSYWYGWYDYWGQGTQVTVSS,low polyreactivity

row,Sequence,polyreactivity (PSR sort gate)
1,QVQLVESGGGIVQAGGSHRLSCAASGYIFKPNHMGWYRQAPGIDRELVAAISKSRGTTYYADSVKGRFTISRDNAKNTVYLQMNGLKPEDTAVYFCGGVRRYHSYPDGGYWGQGSQVTVSS,high polyreactivity
2,QVQLVESGGGLVQAGGSLRLSCAASGRTIRTYTMGWYRQAAGKERELVAAISWSGSSTYYADSVKGRFTISRDNAKNTVYLQMNSLKPEDTAVYYCAARGLYDYGYWGQGTQVTVSS,high polyreactivity
3,QVQLVESGGGLVQAGGSLRLSCAASGSIFSIYAMGWYRQAPGKERELVATIRRDGSTYADSVKGRFTISRDNAKNTVYLQMNSLKPEDTAVYYCNARSYHQPRDYYWGQGTQVNVSS,low polyreactivity
4,QVQIVESGGGLVQAGGSLRLSCAASGFTFRYYAMGWYRQAPGQERELVAAISKSGGSTYYADSVKGRFTISRDNAKNTVDLQMNSLKPEDTAVYYCAADYAHIGYDYDYWGQGTQVTVSS,high polyreactivity
5,QVQLVESGGGLVQAGGSLRLSCAASGFTFPYYAMGWYRPAPGKERELVAAISRNGGSTYYADSVKGRFTISRDNAKNTVYFQMNRLKPEDTAVYYCNKKWLGWADPSLDKRYDYWGQGTQVTVSS,high polyreactivity
6,QVQLVESGGGLVQAGGSLRLSCAASGSISSSYAMGWYRQAPGKERELVAAIDGSDGTTYYADSVKGRYTISRDNAKNTVYLQMNSLKPEDTAFYYCAAEPLGYHAGATRYDYWGQGTQVTVSS,high polyreactivity
7,QVQLEESGGGLVQAGGSLRLSCAASGRIFGWYALGWTRQAAGKESELVAAISNDGSTNYADSVKGRFTSSRDNAKNTVYLQLNSVKPEDTAVSYCNARVYSSRARWGTYDYWGQGNQVTVSS,high polyreactivity
8,QVQLVESWGGLVQAGGSLRLSCAASGRIFRGYAMGWYRQAPGKERELVAVISYSGTRTYYADSVKGRFTISRDNAKNTVYLQMNSLKPEDTAVYYCNARANGFKDGYWGQGTQVTVSS,high polyreactivity
9,QVQLVESGGGLVQAGGSLRLSCAASGRIFRYNAMGWYRQAPGKERELVAAISRGDGSTYYADSVKGRFTISRDNAKNTVYLQMNILKPEDTAVYYCAAAWSFIYFQHPAFKYDYWGQGTQVTVSS,low polyreactivity
10,QVQLEESGGGLVQAGGSLRLSSAASGIIFGTNAMGWYRQAPGKERELVAGITSSGDSTYYADSVKGRFTISRDNPKNTVYLQMNSLKPEDTAVYYCARDIRTREFDSWGQGTQVTVSS,low polyreactivity
11,QVQLVESGGGLVQAGGSLRLSCAASGRIFGHYAMGWYRQAPGKERELVAAITRSGDRTYYADSVKGRFTISRDNAKNTVYLQMNSLKPEDTEVYYCAADVSAVQGYYYWGQGTQVTVSS,low polyreactivity
12,QVQLVESGGGLVQAGGSLRLSCAASGITFAFYAMGWYRQAPGKERELVAAISWSGTRTYYADSVKGRFTISRDNAKNTVYLQMNSLKPEDTAVYYCAADYQAGYKMFDYWGQGTQVTVSS,low polyreactivity
13,QVQLVESGGGLVQAGGSLRLSCAASGLIFTAYAMGWYRQAPGKERELVAAIDWRGGSTSYADSVKGRFTISRDNAKNTVYLQMNSLKPEDTAVYYCAADYYSKYVRFGYWGQGTQVTVSS,high polyreactivity
14,QVQLVESGGGLVQAGGSLRLSCAASGGIIGWNAMGWYRQAPGKERELVATISWSGGSTYYADSVKGRFTISRDNAKNTVYLQMNSLKPEDTAVYYCAVARSAYWYRPAYDYWGQGTQVTVSS,high polyreactivity
15,QVQLVESGGGLVQAGGSLRLSCAASGGTYHANAMGWYRQAPGKERELVAGITSGGSTYYADSVKGRFTISRDNAKNTVYLQMNSLKPEDTAVYYCNARYPLNIIRGFVWWTVGHDYWGQGTQVTVSS,low polyreactivity
16,QVQLVESGGGLVQAGGSLRLSCAASGRILVKNTMGWYRQAPGKERELVAAITSAGNTYYADSVKGRFTITRDNAKNSVYFQMNSLTPEATAVYYCAARNRTFFQPTYYYWGQGTQVTVSS,high polyreactivity
17,QVQLVESGGGLVQAGGSLPLSCAASGRIFNQYGMVWYRQAPGKERELVAAIRSGDSTNYADSVKGRFTISRDNAMNTVYLQMKSLKPEDPAVYYCARDRPGDYAGYDYWGQGTQVTVSS,low polyreactivity
18,QVQLVESGGGLVQAGGSLRLSCAASGITIAGYAMGWYRQAPGKERELVAAITIGGRTYYADSVKGRFTISRDNAKNSVYLQMNSLKPEDTAVYYCAGVVRALTIKYGYWGQGTQVTVSS,high polyreactivity
19,QVQLVESGGGLVQAGGSLRLSCAASGSTFTGNAMGWYRQAPGKERELVASINGSSGSTYYADSVKGRFTISRDNAKNTVYFQMNSLKPEDTAVYYCAKDSFLHFPRVGWVGLEYWGQGTQVTVSS,low polyreactivity
20,QVQLVESGGGLVQAGGSLRLSCAASGGSYVMGWYRQAPGKERELVAAITFSGRTYYADSVKGRFTISRDNAKNTVYLQMNSLKPEDTAGYYCAARERPGFRRPLTGGYDHWGQVTQVTVSS,high polyreactivity
21,QVQLVESGGGLVQAGGSLRLSCAASGRIYRYAMGWYIQAPGKERELVASISYSGGSTYYADSVKGRFTISRDNAKNTVYLQMNSLKPEDTAVYYCAARTRHVHYGYWGQGTQVTVSS,high polyreactivity
